Test: yeast display, Sf9 membrane polyspecificity reagent, FACS + sequencing; frameworks hold sequencing errors
Method in brief: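 Galactose-induced (36–48 hours) yeast carrying a synthetic nanobody display library were exposed to 10% biotinylated, detergent-solubilized Sf9 membrane reagent at 4 °C for 1 hour. FACS followed streptavidin microbead enrichment, using low and high (top ~1%) gates for expression (anti-HA) and reagent binding (streptavidin). Colony PCR, MiSeq 2 × 250 sequencing and CDR-length filtering followed. Labels for polyreactivity reflect the gate of origin.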

Sequence	polyreactivity (PSR sort gate)
QVQLVESGGGLVQAGGSLRLSCAASGLIFVAFAMGWYRQAPGKERELVAAISRSGGSTYYADSVKGRFTISRDNAKNTVYLQMNSLKPEDTAVYYCAKYYGARHVDDDYWGQGTQVTVSS	high polyreactivity
QVQLVESGGGLVQAGGSLRLSCAASGFTFGRYAMGWYRQAPGKERELVASITSGGSTYYADSVKGRFTISRDNAKNTVYLQMNSLKPEDTAVYYCAAEWRWWGGYYYWGQGTQVTVSS	high polyreactivity
QVQLVESGGGLVQAGGSLRLSCAASGRIFNLYGMGWYRQAPGKEREFVATITWSGVTTYADSVKGRFTISRDNAKNTVYLQMNSLKPEDTAVYYCAADYRYRTRWYDYWGQGTQVTVSS	high polyreactivity
QVQLVESGGGLVQAGGSLRLSCAASGRTFYGYAMGWYRQAPGKERELVAAISRRGGSTNYADSVKGRFTISRDNAQTTVYLQMNSLKPEDTAVYYCNKVVPHKPPTMDYWGQGTQVTVSS	high polyreactivity
QVQLVESGGGLVQAGGSLRLSCAASGRIFWGNAMGWYRQAPGKERELVAAITSGDGTNYADSVKGRFTISRDNAKNTVYLQMNSLKPEDTAVYYCSYYYWGQGTQVTVSS	low polyreactivity
QVQLVESGGGLVQAGGSLRLSCAASGRNFRKYTMGWYRQAPGKERELVATISNSGVSTYYADSVKGRFTISRDYAKNTVYLQMNSLKPEDTAVYYCSKEWLYYNGFFRSYYWGQGTQVNVSS	high polyreactivity
QVQLVESGGGLVQAGGSLRLSCAASGSTLAVYPMGWYRQAPGKERELVAVIDRGGSTYYADSVKGRFTISRDNAKNTVYLQMNSLKPEDTAVFNCNARRVKGYGYWGHGTQVTVSS	high polyreactivity
QVQLVESGGGLVQAGGSLRLSCAASGLIIWLYTMGWYRQAPGKERELVAAIDWSGGSTYYADSVKGRFTISRDNAKNTDYLQMNSLKPEDTAVYYCAADPEPSYRFDYCGQGTQVTVSS	low polyreactivity
QVQLVESGGGLVQAGGSLRLSCAASGRIFGRYAMGWYRQAPGKERELVASITRRGGSTYYADSVKGRFTISRDNAKNTVYLQMNSLKPEDTAVYYCAAGGFSWEGDSWGQGTEVTVSS	high polyreactivity
QVHLVESAGGLVHAGGSHRLSCAASGFIFYRNAMGCYRQEPGKERELVAAISYRGARTYYADSVKGRFTISRDYEKNTVYLQMNSLKPEDTAVYYCAAQGVSSPGVDSWGQGTQVTVSS	high polyreactivity
QVQLVESGGGLVQAGGSLRLSCAASGLTFTSYAMGWSRPAPGKERELVAAIDWSGGRTYYADSVKGRFTISRDNAKNTVYLQMNSLKPEDTAVYYCAAYSRNRALRFNYWGQGTQVTVSS	high polyreactivity
QVQLVESGGGIVQAGGSLRLSCAASGSILSYYAMGGYRQAPGNEREFVAAISWGTITNYADSVKGRFTISRDNAKKTVYLQMNSLKPEDTAVYYCNADPYGWYSSDYDYWGQGTQVTVSS	low polyreactivity
QVQLVESGGGLVQAGGSLRLSCAASGITFDYNAMGWYRPAPGKERELVASITTNDDSTYYADSVKGRFTISRDNAKNTVYLQINSLKPEDTAVYSCNADQITGQFDYWGQGTQVTVSS	low polyreactivity
QLQLEESGGGLVQAGGSLRLSCAASGRTFESYGMGLYRQATGKERELVAAISHNADSTYADSVKGRFTISRDNAKNTVYLQMNSLKSEDTAVYYCNAETPVRSDYWGQGTQVTVSS	low polyreactivity
HVQLVESGGGLVQAGGSLRLSCAASGSIFIIYAMGWYRQAPGKERELVAAMDWSDGSTYYADSVKGRFTISRDNANNTVYLQMNSLKPEDTAVYYCNTQSRTLGWPLDYWGQGTQVTVSS	high polyreactivity
QVQLVESGGGLVQAGGSLRLRCAASGFNSVRNAMGWYRPAPGKEREFVAAISGGGGSTYYADSVKGRFTISRDNAMNTVYLQMNSLKPEDTAVYYCAPRSYWGQGTQVTVSS	high polyreactivity
QVQLVESGGGLVQAGGSLRLSCAAPGSIFYQNAMGGYRQAPGKERELVAAISRSGGSTYYADSVKGRFTISRDNAKNTVYLQMNSLKPEDTAVYYCAARISRQRSYSRDYWGQGTQVTVSS	high polyreactivity
QVQLVESGGGLVQAGGSLRLSCAASGSILGDYAMGWYRQAPGSEREFVAAIDGSDGSTYYADSVKGRFTISRDNAKNTVYLQMNSLKPEDTAVYYCAATDYDTYRSSWYDYWGQGTQVTVSS	low polyreactivity
QVQLVESGGGLVQAGGSLRISCAASGFTFVYNTMGWYRQAPGKERELVAAITSRGGSTYYADSVKGRFTISRDNAKNTVYLQMYSLKPEDTAVYYCAAKISVRTSGTRYYYWGQGTQVTVSS	high polyreactivity
QVQLVESGGGLVQAGGSLRLSCAASGSTFYYYAMGWYRQAPGKERELVATIDSGTSTYYADSVKGRFTISRDNAKNTVYLQMISLKPEDTAVYYCAAKTWSWSYGYNYWGQGTQVTVSS	low polyreactivity
QVQLVESGGRLVQAGGSLRLSGADSGSIFSSYAMGWNRPAPGKERELVAAISSSGDSTYADSEKGRFTISRDNAKNSVDLQMNSLKPEDTAVYYCAVGGAGSDDYWGQGTQVTVSS	low polyreactivity
QVPMQESGGGLVQADGRLSLSCAASGSIFGYYYMGWYRQAPGKDRELVATINICGITNYADSVKGRFTISRDNAKNTVYLQMNSLKPDATAVYYCAADEYAQRDLGYWGQGPQVTVSS	low polyreactivity

Sequence	polyreactivity (PSR sort gate)
QVQLVESGGGLVQAGGSLRLSCAAYGSTFRSYAMGWYRQAPGKERELVAAISYSGDSTYYADSVKGRFTISRDNAKNTVYLQMNSLKPEDTAVYYCAALRDWDFQCEPWKRYGYWGQGTLVTVSS	low polyreactivity
QVQLVESGGGLVQAGGSLRLSCAASGLIFRWYAMGWSRQAPGKEWELVAAINYSGGRTYYADSVKGRFTISRDNAKNTVYLQMNSLKPEDTAVYYCAADGTYVWGSEEGNYWGQGTQVTVSS	low polyreactivity
QVQHVESGGGLVQAGASLRLSCAASGTTFIGYERGRSRQAPGKVRELVAAISYSDGTYYADSVKGRFTISRENAKNTVYLQMNSLKPEDTAVYYCAADSLFYRYDYWGQGTQVTVSS	low polyreactivity
QVQLVESRGGLVQAGGSLRLSCAASGSTFNYYVMGWYRQAPGKERELVAAISRSGTSTYYADSVKGRFTISRDNAKNTVYLQMNSLKPEDTAVYYCAAYQPYYARTELDYWGQGTQVTVSS	high polyreactivity
QVQLVESGVGIVQAGGSLRLSCAASGSIFKTNAMGWYRHAPGNERELVAAITGSGGSTYYADSVKGRFTISRDNAKNNVYLQMMSLKPEDTAVYYCAKRSYRPILRWSYDYWGQGTQVTVSS	low polyreactivity
QVQLVESGGGLVQAGGSLRLSCAASRSTFPRYAMGWSRQAPGKERELVAAISSSGRTYYADSVKGRFTISRDNAKNTVYLQMNSLKPEDTAVYYCNAPVARGEASYYWGQGTEVTVSS	high polyreactivity
QVQLVESGGGLVQAGGSLRLSCAASGFTFIRYAMGWDRQAPGKERELVAAISVSGGRTYYADSVKGRFTISRDNAKNTVYLQMNSLKPEDTAVYYCARRPSYYQGDYWGQGTQVTVSS	high polyreactivity
QVQLVESGGGLVHAGGSLRLSCAASGFTIRSYVMGWYRQAPGKERELVAAIRRSGGSTYYADSVKGRFTISRDNAKNTVYLQMNCLKPEDTAVYYCNADIRAYTVLTGGYIYDYWGQGTQVTVSS	high polyreactivity
QVQLVESGGGLVQAGGSLRLSCAASGSIFRVYAMGWYRQAPGKERELVAGISSRGGTSTYYADSVKGRFTISRDNAKNSVYLQMNSLNPEETAVYYCAVQVRYPGYDYWGQGTQVTVSS	low polyreactivity
QVQLVESGGGLVQAGGSLRLSCAASGSNFYSYAMGWYRQAPGKERELVAAITGDGGSTYYADSVKGRFTISRDNAKNTVYLQRNSLKPEDTAVYYCAVPHTYRRYDYWGQGTQVTVSS	low polyreactivity
QVQLVESGGGLVQAGGSLRLSCAASGRTFRFNAMGWYRQAPGKEMELVAAISSGGRTYYADSVKGRFTISRDNAKNTVYLQMNSLKPEDTAVYYCAARVFVRHPHQVAYDYWGQGTQVTVSS	high polyreactivity
QVQLVESGGGLVQAGGSLRLSCAASGRIFKRNAMGWYRQAPGKDTELVAGISSSGGSTYYADSVKGRFTISRDNAKNTVYLQMNSLKPEDTAVYYCAAVGYGLRPSYDYWGQGTQVTVSS	high polyreactivity
QVQLVESGGGLVQAGGSLRLSCAASGSIFASNAMGWYRQAPGKERELVAAITDSGSTNYADSVKGRFTISRDNAKNTVYLQMNSLKREDTAVYYCDWSYYVWRRYRVARYDSWGQGTQVTVSS	low polyreactivity
QVQLVESGGGLVQAGGSLRLSCAASGRTFIVYAMGWYRQAPGKERELVARISSGSRTSYADSVKGRFTISRDNAKNTVYLQMNSLKPEDTAVYYCAKSRVIKYEFDYWGQGTQVTVSS	low polyreactivity
QVQLVESGGGLLQAGASLRLSCAASGRTIYRYAMGRYRQAPGKERELVAAITRRGVNTYYADSVKGRFTISRDNAKNTVYLQMYSLKPVDTAVFYCNAAYSSRYDYCGQGTQVTVSS	high polyreactivity
QVQLVESGGGLVQAGGSLRLSCAASGRILSYYAMGWYRQAPGKERELVATISASGGSTYYADSVKGRFTISRDNAKNTVYLQMNSLKPEDTAVYYCAAARVPAYYLRYFYRTTYDYWGQGTQVTVSS	high polyreactivity
QVHLVDSGGRLVQAGGSLRLSCSASGNNFPGYAMGLYRQAPGKEREFVATITSNDGTTYYADSVKGRFTISRDNAMNTFFLQMNSLKPEDTAVYYCASVVRQYGFDYLGQGTQVTVSS	low polyreactivity
QVQLVETGGGLVQSGGSLRLSCAASGSTFTYYAMGWYRQAPGKERELVAAIDFSGTSTYYADSVKGRFTISRDNAKNTVYLQMNCLKPEDTAVYFCAASQSLYWGGAHDNGEFGYWGQGTQVTVSS	low polyreactivity
QVHLVESGGGLVQAGGNLRLICAASGSIFSDYTIGWYRQAPGKERELVAVITLSSGSTYFADSVKGRFTISRDNAKNTDYLQMNSLKPEDTAVYYCAADGWYYFGSGVFEYDYWRQGTQVTVSS	low polyreactivity
QVQLVESGGGLVQAGGSLRLSCAASGSTFGWYAMGWYRQAPGKERELVASITWDGGRTYYADSVKGRFTISRDNAKNTVYLLMNSLKPEDTAVYYCAARGVSSPLNYWGQGTQVTVSS	low polyreactivity
QVQLVESGGGIVQAGGSLRLSCAASGYTFGTYAMGWYRQAPGKERELVAAITSTGGRTYYADSVKGRFTISRDNAKNTVYLQMNSLKPEDTAVYYCAAERVYRTIWHYPYYYWGQGTQVTVSS	high polyreactivity

— the nanobody polyreactivity screen of Harvey et al. (2022)
